Source: IntAct's records for PubMed 20708156

B1: F-box/WD repeat-containing protein 1A (Homo sapiens), Q9Y297 (parent)
chain: MDPAEAVLQEKALKFMCSMPRSLWLGCSSLADSMPSLRCLYNPGTGALTAFQNSSEREDCNNGEPPRKIIPEKNSLRQTYNSCARLCLNQETVCLASTAMKTENCVAKTKLANGTSSMIVPKQRKLSASYEKEKELCVKYFEQWSESDQVEFVEHLISQMCHYQHGHINSYLKPMLQRDFITALPARGLDHIAENILSYLDAKSLCAAELVCKEWYRVTSDGMLWKKLIERMVRTDSLWRGLAERRGWGQYLFKNKPPDGNAPPNSFYRALYPKIIQDIETIESNWRCGRHSLQRIHCRSETSKGVYCLQYDDQKIVSGLRDNTIKIWDKNTLECKRILTGHTGSVLCLQYDERVIITGSSDSTVRVWDVNTGEMLNTLIHHCEAVLHLRFNNGMMVTCSKDRSIAVWDMASPTDITLRRVLVGHRAAVNVVDFDDKYIVSASGDRTIKVWNTSTCEFVRTLNGHKRGIACLQYRDRLVVSGSSDNTIRLWDIECGACLRVLEGHEELVRCIRFDNKRIVSGAYDGKIKVWDLVAALDPRAPAGTLCLRTLVEHSGRVFRLQFDEFQIVSSSHDDTILIWDFLNDPAAQAEPPRSPSRTYTYISR

Variants of: B1
Settings: with mdm2_human MDM2, Q00987
Sequence of mdm2_human MDM2, Q00987 (Q00987 whole entry, looked up): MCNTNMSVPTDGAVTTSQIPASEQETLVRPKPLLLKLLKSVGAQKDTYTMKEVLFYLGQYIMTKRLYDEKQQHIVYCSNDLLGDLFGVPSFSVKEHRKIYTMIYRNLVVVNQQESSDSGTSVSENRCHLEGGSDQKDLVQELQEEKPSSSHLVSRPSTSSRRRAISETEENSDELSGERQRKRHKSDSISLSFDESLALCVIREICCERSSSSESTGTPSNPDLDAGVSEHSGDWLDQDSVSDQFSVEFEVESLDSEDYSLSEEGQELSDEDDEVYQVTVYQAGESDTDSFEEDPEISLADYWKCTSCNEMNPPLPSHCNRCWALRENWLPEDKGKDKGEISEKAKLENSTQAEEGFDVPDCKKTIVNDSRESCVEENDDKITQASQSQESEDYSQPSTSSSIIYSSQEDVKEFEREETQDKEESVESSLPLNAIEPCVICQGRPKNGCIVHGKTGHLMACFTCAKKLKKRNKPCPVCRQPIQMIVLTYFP

| effect of a mutation on the interaction | Variant |
| --- | --- |
| decreasing interaction | R475A |
